{"source": "patent US20260199458A1", "about": "(INCENDIA THERAPEUTICS, published 2026)", "key": {"[1]": {"target": "T1, Human DDR1 extracellular domain (human, UniProt Q08345 21-417)", "T1 construct": "extracellular domain", "experiment": "Biacore, DDR1 extracellular domain", "description": "(§1) First, 9H-1 was tested for its affinity to DDR1 protein from human, mouse, rat, and cynomolgus monkey."}, "[2]": {"target": "T2, Mouse DDR1 extracellular domain (mouse, UniProt Q03146 22-415)", "T2 construct": "extracellular domain", "T2 sequence (looked up)": "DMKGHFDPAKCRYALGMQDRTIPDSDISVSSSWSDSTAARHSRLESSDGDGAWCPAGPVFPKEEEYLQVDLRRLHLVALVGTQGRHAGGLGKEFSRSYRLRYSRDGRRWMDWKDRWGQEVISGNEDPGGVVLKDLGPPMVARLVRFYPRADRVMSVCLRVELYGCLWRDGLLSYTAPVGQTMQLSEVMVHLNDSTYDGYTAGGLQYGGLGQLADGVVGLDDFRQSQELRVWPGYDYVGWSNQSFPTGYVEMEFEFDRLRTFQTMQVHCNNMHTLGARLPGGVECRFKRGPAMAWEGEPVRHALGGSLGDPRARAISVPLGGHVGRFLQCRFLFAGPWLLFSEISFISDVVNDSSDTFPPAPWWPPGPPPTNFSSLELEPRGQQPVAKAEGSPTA", "experiment": "Biacore, DDR1 extracellular domain", "description": "as §1"}, "[3]": {"target": "T3, Rat DDR1 extracellular domain (rat, UniProt Q63474 22-414)", "T3 construct": "extracellular domain", "T3 sequence (looked up)": "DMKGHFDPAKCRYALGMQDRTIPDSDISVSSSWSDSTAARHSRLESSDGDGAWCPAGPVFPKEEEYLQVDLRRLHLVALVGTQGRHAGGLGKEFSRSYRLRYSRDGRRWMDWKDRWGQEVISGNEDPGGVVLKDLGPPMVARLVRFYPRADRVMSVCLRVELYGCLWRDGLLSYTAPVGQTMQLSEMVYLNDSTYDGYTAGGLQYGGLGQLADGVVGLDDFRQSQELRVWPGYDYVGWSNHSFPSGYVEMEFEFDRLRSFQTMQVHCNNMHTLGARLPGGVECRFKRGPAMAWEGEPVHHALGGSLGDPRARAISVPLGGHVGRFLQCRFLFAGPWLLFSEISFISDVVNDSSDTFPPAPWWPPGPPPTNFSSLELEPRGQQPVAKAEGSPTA", "experiment": "Biacore, DDR1 extracellular domain", "description": "as §1"}, "[4]": {"target": "T4, Cynomolgus monkey DDR1 extracellular domain (cynomolgus monkey, UniProt A0A2K5V739 47-443)", "T4 construct": "extracellular domain; also called Cyno DDR1", "T4 sequence": "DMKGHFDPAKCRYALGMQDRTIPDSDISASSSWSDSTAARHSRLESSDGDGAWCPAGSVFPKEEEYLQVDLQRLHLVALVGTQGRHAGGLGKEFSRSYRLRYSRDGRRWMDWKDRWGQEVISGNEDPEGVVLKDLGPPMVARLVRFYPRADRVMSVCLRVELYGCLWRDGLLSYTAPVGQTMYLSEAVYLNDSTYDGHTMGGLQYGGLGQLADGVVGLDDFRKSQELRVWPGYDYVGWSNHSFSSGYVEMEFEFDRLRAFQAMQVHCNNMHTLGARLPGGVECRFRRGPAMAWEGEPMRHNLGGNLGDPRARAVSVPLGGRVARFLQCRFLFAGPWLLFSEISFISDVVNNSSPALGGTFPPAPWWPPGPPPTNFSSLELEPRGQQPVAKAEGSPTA", "experiment": "Biacore, DDR1 extracellular domain", "description": "as §1"}, "[5]": {"target": "T1, Human DDR1 extracellular domain", "experiment": "Biacore, DDR1 extracellular domain; KD in mass units (ng/mL), same fit as the 1.36 nM of r7c2", "description": "as §1"}}, "note": "Several values for one entry are separate records, joined by “and”; a condition that tells them apart may be missing. Equal values may be shown once.", "data": [{"binder": "9H-1 (humanized DDR1-9, WT IgG1 Fc) (antibody, V domains shown, In some embodiments the heavy chain lacks the terminal lysine; also called PRTH-101; humanized DDR1-9 (9H-1)_1 WT IgG1 Fc) VH: QVQLVESGGRVVQPGRSLRLSCTASGFSLNRYYMLWVRQAPGKGLEWIGTISYGDTTYYASWAKGRFTISRDNSKNTLYLQMNSLRAEDTAVYYCARADTGDNGYLGLQLWGQGTLVTVSS VL: DIQMTQSPSSVSASVGDRVTITCQASQSIGSVLAWYQQKPGKAPKLLISGVFDLASGVPSRFSGSGSGTDFTLTISSLQPEDFATYYCQYIPYGSSPFGGGTKVEIKR", "values": [{"measurement": "Kd", "setting": "[1]", "value": 1.36, "unit": "nM"}, {"measurement": "koff", "setting": "[1]", "value": 0.000181, "unit": "s⁻¹"}, {"measurement": "kon", "setting": "[1]", "value": 133000, "unit": "M⁻¹ s⁻¹"}, {"measurement": "t1/2", "setting": "[1]", "value": 64, "unit": "min"}, {"measurement": "Kd", "setting": "[2]", "value": "16.9 nM and 2.54 µg/mL"}, {"measurement": "koff", "setting": "[2]", "value": 0.00397, "unit": "s⁻¹"}, {"measurement": "kon", "setting": "[2]", "value": 235000, "unit": "M⁻¹ s⁻¹"}, {"measurement": "t1/2", "setting": "[2]", "value": 2.9, "unit": "min"}, {"measurement": "Kd", "setting": "[3]", "value": "2.28 nM and 0.342 µg/mL"}, {"measurement": "koff", "setting": "[3]", "value": 0.000455, "unit": "s⁻¹"}, {"measurement": "kon", "setting": "[3]", "value": 199000, "unit": "M⁻¹ s⁻¹"}, {"measurement": "t1/2", "setting": "[3]", "value": 25.3, "unit": "min"}, {"measurement": "Kd", "setting": "[4]", "value": "1.3 nM and 0.195 µg/mL"}, {"measurement": "koff", "setting": "[4]", "value": 0.00015, "unit": "s⁻¹"}, {"measurement": "kon", "setting": "[4]", "value": 116000, "unit": "M⁻¹ s⁻¹"}, {"measurement": "t1/2", "setting": "[4]", "value": 77, "unit": "min"}, {"measurement": "Kd", "setting": "[5]", "value": 0.204, "unit": "µg/mL"}]}]}
